6 proteins from paper PMC3942423 (Nature chemical biology, 2009) can be followed below.

Substrate in series [1]: O=[N+]([O-])c1ccc(O[C@H]2O[C@H](CO)[C@@H](O)[C@H](O)[C@@H]2O)cc1
In words: 4NP-Man hydrolysis kinetics. As to conditions: other: substrate 4NP-Man. In kind it is biochemical, Bacteroides thetaiotaomicron.

Substrate in series [2]: OC[C@H]1O[C@H](O[C@H]2[C@@H](O)[C@H](O)[C@@H](CO)O[C@@H]2O)[C@@H](O)[C@@H](O)[C@@H]1O
In words: mannobiose hydrolysis kinetics. It counts as biochemical, Bacteroides thetaiotaomicron. Conditions: other: most active mannobiose substrate.

Substrate in series [3]: OC[C@H]1O[C@H](O[C@@H]2[C@H](O)[C@@H](O)O[C@H](CO)[C@H]2O)[C@@H](O)[C@@H](O)[C@@H]1O
In words: purified protein, by the assay type. As to conditions: other: most active mannobiose substrate; enzyme Bt3773; pH 7.0; 37.0 °C.

B1: Bt3990 (Bacteroides thetaiotaomicron VPI-5482) (protein)
chain: KDWTQYVNPLMGSQSTFELSTGNTYPAIARPWGMNFWTPQTGKMGDGWQYTYTANKIRGFKQTHQPSPWINDYGQFSIMPIVGQPVFDEEKRASWFAHKGEVATPYYYKVYLAEHDIVTEMTPTERAVLFRFTFPENDHSYVVVDAFDKGSYIKIIPEENKIIGYTTRNSGGVPENFKNYFIIEFDKPFTYKATVENGNLQENVAEQTTDHAGAIIGFKTRKGEQVNARIASSFISFEQAAANMNELGKDNIEQLAQKGKDAWNQVLGKIEVEGGNLDQYRTFYSCLYRSLLFPRKFYELDANGQPIHYSPYNGQVLPGYMFTDTGFWDTFRCLFPLLNLMYPSVNKEMQEGLINTYLESGFFPEWASPGHRGCMVGNNSASILVDAYMKGVKVDDIKTLYEGLIHGTENVHPEVSSTGRLGYEYYNKLGYVPYDVKINENAARTLEYAYDDWCIYRLAKELKRPKKEISLFAKRAMNYKNLFDKESKLMRGRNEDGTFQSPFSPLKWGDAFTEGNSWHYTWSVFHDPQGLIDLMGGKEMFVTMMDSVFAVPPIFDDSYYGQVIHEIREMTVMNMGNYAHGNQPIQHMIYLYDYAGQPWKAQYWLRQVMDRMYTPGPDGYCGDEDNGQTSAWYVFSALGFYPVCPGTDEYVMGTPLFKKATLHFENGNSLVIDAPNNSTENFYIDSMSFNGADHTKNYLRHEDLFKGGTIKVDMSNRPNLNRGTKEEDMPYSFSKE
By Km is commonly meant the concentration of substrate that gives half-maximal velocity. By kcat is commonly meant the maximal rate divided by the concentration of active sites. For orientation: kcat/Km means the turnover number divided by the Michaelis constant. Turning to B1, in series [1] (enzyme Bt3990, pH 7.0), the Km was 4200 ± 420 µM, the kcat is 0.0933 ± 0.00467 s⁻¹ and the kcat/Km was found to be 21.7 M⁻¹ s⁻¹. Further, in series [2] (enzyme Bt3990, pH 7.0), the Km turned out to be 760 ± 110 µM, the kcat is 86.7 ± 5 s⁻¹ and the kcat/Km was 113000 M⁻¹ s⁻¹.

B2: Bt4092 (Bacteroides thetaiotaomicron VPI-5482) (protein)
chain: QLKDLVQYVNTLQGTDSNFGLSYGNTYPTTGMPYGMHMWSAQTGKNGDGFKYMYAVDKIRAFSQSHQCSPWVSDYAVYSFMPMVGELVVNQDARATKFSHDNEIAKPHYYKVTFDNGITTEMAPTTRGVHLRFSYPTTGDAYLVLDGYTDMSEIKIDPAKRQISGWVNNQRFVNDSKSFRNYFVVQFDKPFEDYGVWENQKDEVFPQKLDGAGKGYGAFIKFKKGSKVQAKAASSYISAEQALITLNKELGKDKNLEVTKARGQKTWNEVLNRIVVEGCTDEQMKTFYSCLFRANLFSRKFYERKENGEPYYYSPYNGKIYDGYMYTDNGFWDTFRSQFPLTNILHPTMQGRYMNALLAAQEQCGWLPSWSSPGETGGMLGNHSISLLADAWAKGIRDFDPEKALKAYAHEAMNKGPWGGANGRGFWKEYFQLGYVPYPESMGSSAQTMEYAYDDFCGYQLAKMVGNKHYQEVFARQMYNYKNVFDKSIGFMRGKGVDGKWQEPFDPLEWGGPFCEGNAWHYTWSVFHDVQGLIDLFGSDEKFTTKIDSVFTIPNIIKPGTYGGVIHEMKEMELANMGQYAHGNQPIQHMPYLYCYAGQPWKTQYWVRQIVERLYNSTEKGYPGDEDQGGMSSWYILSSLGIYAVCPGTDEYVIGSPLFKKATITMENGNKFVIEAPENSKENLYIQSATLNGRLLDKNYIHYDDIAEGGVLKFEMGSQPNKERCTSKYAAPFSLSKE
Take B2: in series [2] (enzyme Bt4092, pH 7.0), the Km stood at 2000 ± 450 µM, the kcat worked out at 1.83 s⁻¹ and the kcat/Km amounted to 900 M⁻¹ s⁻¹.

B3: Bt3784 (Bacteroides thetaiotaomicron VPI-5482) (protein)
chain: MKTHFSFKHLLFIGGAVLYSMQISAVKNPVDYVSTLVGTQSKFELSTGNTYPATALPWGMNFWTPQTGKMGDGWAYTYNADKIRGFKQTHQPSPWMNDYGQFSIMPITGGLVFDQDQRASWFSHKAEVAKPYYYKVYLADHDVTTELVPTERAAMFRFTYPETKNAYVVIDAFDKGSYVKVIPEENKIIGYSTKNSGGVPENFKNYFVIQFDKPFTFTSGVKENNILPNETEVQGNHTGAIIGFATQKGEIVHARVASSFISYEQAELNLKELGKDSFDQLVTKGKDIWNREMSKVDVEDDNIDNLRTFYSCLYRSMLFPRSFYEIDAKGQVVHYSPYNGKVLPGYMFTDTGFWDTFRCLFPFLNLMYPSMNQKMQEGLVNAYLESGFLPEWASPGHRDCMVGNNSASVVADAYIKGLRGYDIETLWEALKHDANAHLRGTASGRLAYDAYNKLGYVPNNIGIGQNVARTLEYAYNDWTIYTLGKKLGKPASEIDIFKQRALNYKNVYHPKRKLMVGKDDKGVFNPKFDAVDWSGEFCEGNSWHWSFCVFHDPQGLIDLMGGKKEFNNMMDSVFVIPGKQGMESRGMIHEMREMQVMNMGQYAHGNQPIQHMVYLYNYSGEPWKAQHWVREIMDKLYTAGPDGYCGDEDNGQTSAWYVFSALGFYPVCPGTDQYILGTPLFKSAKLHLENGKTVTIKASNNNTDNRYVKDMKVNGKAFTRNYLTHDQLLKGANIQYQMSPTPNKQRGTTEKDIPYSLSFE
Turning to B3, in series [1] (enzyme Bt3784, pH 7.0), the kcat stood at 0.08 ± 0.0065 s⁻¹ and the specificity constant (kcat/Km) was 11.5 M⁻¹ s⁻¹. In series [2] (enzyme Bt3784, pH 7.0), the kcat is 0.45 ± 0.0917 s⁻¹ and the kcat/Km is 183 M⁻¹ s⁻¹.

B4: Bt2199 (Bacteroides thetaiotaomicron VPI-5482) (protein)
chain: MVTRLFFLSICFPFLLTSCQQSKKTVEFVDYVNPLMGTESTFAFSHGNTYPAVAVPWGMNFWSPQTGENGSGWMYTYTDSLMRGFRQTHQPSPWINDYGTFSIMPLAGELKMSHKERLVPFSHQQEKATPYNYSVTFNNGLQTSLSATSRGAVFEVSFPEKEDQYVVVDAYNGGSSITIEPEKRLVKGATRYNNGGVPDNFANYFMMEFSHPVIEYGTYNGDTLLHHQTDVAADYTCAYLKFDVPAGEKLTIRTASSFISPEQAAINFNREVADADVQLISGKAREQWNNYLGRVEAEGGTDEQLRTFYSCLYRTLLFPREFYEFDSQGNPVYYSPYDGNVHDGYMYTDNGFWDTFRAVHPLFTLLYPEVSERVTQSIINAYNESGFMPEWASPGHRGCMIGNNSVSLLVDAWMKGIQTVDAEKALEAMIHQTQARHAEIASVGRDGFEYYDKLGYVPYPEVPEATAKTLEYAYADWCIARFAESLGKQDIADQYYQKAPNYRNLYYPEHGFMWTKDAKGNWRDRFDATEWGGPFTEGSSWHWTWSVFHDPEGLSELMGGHEPMIARLDSMFVAPNTYNYGTYGFVIHEIAEMVALNMGQYAHGNQPVQHAIYLYDYIGQPWKTQYHLRNVMDKLYNSGSKGYCGDEDNGQTSAWYVFSAMGFYPVCPGMPEYAIGSPLFKKVTLHLPEGKNFVVSAADNAADRPYIRKALLNGQEFTRNYLTHDELKQGGELNLSMDSVPNQQRGTQPADFPYSYSK
As to B4, in series [1] (enzyme Bt2199, pH 7.0), the kcat was found to be 0.105 ± 0.00483 s⁻¹ and the kcat/Km came to 14 M⁻¹ s⁻¹. Further, in series [2] (enzyme Bt2199, pH 7.0), the kcat was 40 ± 2.33 s⁻¹ and the kcat/Km was 60000 M⁻¹ s⁻¹.

B5: Bt3962 (Bacteroides thetaiotaomicron VPI-5482) (protein)
chain: QKQPVDYVNPLMGTDSKISLSNGNTYPAIALPWGMNFWMPQTGKMGDGWAYTYASDKIRGFKQTHQPSPWINDYGQFSIMPMTKQLKIDQDSRASWFSHKAEKATPYYYSVYLSEYNMTTEIAPTERCAYFRFTFPEASDAYVVVDAFDRGSYVKVIPEENKIVGYTTRNSGGVPQNFRNYFVIEFDKPFTFNKVWADYHLVETHLELQSNHVGAAIGFSTKKGEQVHAKVASSFISPEQAELNLKEIGNKTFEQTKEAGRKAWNDVLGRIKVEDDDENRMRTFYSCLYRSVLFPRMFHEVNAKGETVHYSPYNGEIRPGYMFTDTGFWDTFRCLFPFVNLIYPSMGEKMQEGLLNTYLESGFFPEWASPGHRGCMVGNNSASVVADAFMKNVTKADAEKMYEGLLKGANSVHPRVSTTGRRGYEYYNKLGYVPYDVKINENAARTLEYAYDDWCIYRMGEKLGRPAEELELYKSRSQNYRNLFDPETKLMRGKNADGTFQTPFNPFKWGDAFTEGNSWHYTWSVFHDVQGLADLMGGRKMFVSMLDSVFNLPPIFDDSYYGGVIHEIREMEIANMGNYAHGNQPIQHMIYLYNYAGEPWKAQYWLREVMNRLYFATPDGYCGDEDNGQTSAWYVFTALGFYPVCPGSNEYVMGAPYFKKATITLENGKKLEISAPKNSDANRYIRSLNYNGKNYTKNYLNHFDLLKGGRLVFDMDNKPNKGRGINESDFPYSFSRDNK
Take B5: in series [1] (enzyme Bt3962, pH 7.0), the Km is 5000 ± 840 µM, the kcat is 0.283 ± 0.0267 s⁻¹ and the kcat/Km is 56.7 M⁻¹ s⁻¹. In series [2] (enzyme Bt3962, pH 7.0), the Km is 430 ± 52 µM, the kcat came out at 13.7 s⁻¹ and the specificity constant (kcat/Km) was determined as 31700 M⁻¹ s⁻¹.

B6: Bt3773 (Bacteroides thetaiotaomicron VPI-5482) (protein)
chain: KQDYSKSEGLLQYVDPYIGSGFHGHVFVGTSVPYGMVQLGPNNIHKGWDWCSGYHYSDSILIGFSHTHLSGTGCTDLGDILIMPLNEIRTPRGNQDDIRDGYASKYSHDNEIARPEYYSLILDRYNIKAELTATDRVGFHRYTYPEGKPVSILIDLREGNGSNAYDSYIRKVDDYTVEGYRYVRGWSPSRKVYFVLKSDQKIEKFTAYDDNTPKLWDQLKVESVKSVLTFGNVKEVKIKVAISSVSCDNAAMNLQAELSHWDFDKVVKMSSDRWNKQLDKMTVESDDEAAKRVFYTAHYHTMIAPTLYCDVNGEYRGMNDMIYTDPKKANYTTLSLWDTYRALNPLMTIIQPEMVDNVINSMLSIYRQQDKLPIWPLMSGETNCMPGYSSVPVIADAYLKGFTGFDAEEALTAMKATATYEGQNGVPYVMAKGYIPADKIHEATSIAMEYAVDDWGIAAMAQKMGKTADYETFSKRAHYYKNYFDSSIHFIRPKLEDGSWRTPYDPARSIHGVGDFCEGNGWQYTFFAPQDPYGLISLFGGDKPFTSKLDSFFTNNDSMGEGASSDITGLIGQYAHGNEPSHHIAYLYTYAGEQWKTAEKVRFIMSDFYTDQPDGIIGNEDCGQMSAWYLLSAMGFYQVNPSDGVFAFGSPRFKKIEVKVRGGKVFTVEAPNNSKDNIYIQKVYLNGKPYHKSYITYDDIINGSTLKFEMGKKPAKNFGKASANRPIVLNK
For the protein B6, in series [3], the Km is 2500 ± 370 µM, the kcat is 0.0183 s⁻¹ and the kcat/Km was determined as 7.5 M⁻¹ s⁻¹.
